We go through 2 proteins from publication PMC10647171.

Test in all cases: potentiometry
Data set [1] deals with Glu10 (position 10, …). The conditions noted are these: 298 K, 0.1 M NaClO4, none (4 mM HClO4, 0.1 M NaClO4).
In data set [2] the target is His31 (position 31, TTGDCH-----). The conditions noted are these: 298 K, 0.1 M NaClO4, none (4 mM HClO4, 0.1 M NaClO4).
In data set [3] the target is Cterm31 (position 31, TTGDCH-----). The conditions noted are these: 298 K; 0.1 M NaClO4; none (4 mM HClO4, 0.1 M NaClO4); free peptide, no metal, thiols reduced (argon atmosphere).
The target in data set [4] is Cys30 (position 30, STTGDCH----). The note with it: 298 K; 0.1 M NaClO4; none (4 mM HClO4, 0.1 M NaClO4); Zn(II)-bound mononuclear 1:1 complex.
Data set [5] deals with Asp29 (UniProt position 771, ASTTGDCH---). The conditions noted are these: 298 K; 0.1 M NaClO4; none (4 mM HClO4, 0.1 M NaClO4); free peptide, no metal, thiols reduced (argon atmosphere).
The target in data set [6] is His31 (UniProt position 773, TTGDCH-----). The conditions noted are these: 298 K, 0.1 M NaClO4, none (4 mM HClO4, 0.1 M NaClO4).
Data set [7] deals with Cterm31 (UniProt position 773, TTGDCH-----). The conditions noted are these: 298 K; 0.1 M NaClO4; none (4 mM HClO4, 0.1 M NaClO4); free peptide, no metal, thiols reduced (argon atmosphere).
Data set [8] addresses Cys30 (UniProt position 772, STTGDCH----). The note with it: 298 K; 0.1 M NaClO4; none (4 mM HClO4, 0.1 M NaClO4); Zn(II)-bound mononuclear 1:1 complex.
[9] abbreviates: Fe(II)-bound mononuclear 1:1 complex, anaerobic.
[10] abbreviates: Mn(II)-bound mononuclear 1:1 complex.
Where [11] appears, read: free peptide, no metal, thiols reduced (argon atmosphere).
The mark [12] stands for this setting: Zn(II)-bound mononuclear 1:1 complex.

As for RRARSRVDIELLATRKSVSSCCAASTTGDCH [FeoB C-terminal peptide P2 (Ac-RRARSRVDIELLATRKSVSSCCAASTTGDCH, FeoB 743-773) (Escherichia coli K12)], the pKa in data set [1] (setting [9]) is recorded as 4.13; in data set [1] (setting [10]) it was 3.64; in data set [1] (setting [11]), 4.38; in data set [2] (setting [9]), 4.90; in data set [2] (setting [10]) it was 5.20; in data set [2] (setting [12]) it was 5.74. Besides, the figures for the pKa in data set [2] (setting [11]), in data set [3] and in data set [4] were 6.73, 2.15 and 7.75, respectively.
CCAASTTGDCH [FeoB C-terminal peptide P1 (Ac-CCAASTTGDCH, FeoB 763-773) (Escherichia coli K12)]: the pKa in data set [5] is 4.19; in data set [6] (setting [9]), 4.68; in data set [6] (setting [10]), 6.46; in data set [6] (setting [12]) it was 5.91; in data set [6] (setting [11]), 6.96; in data set [7], 3.37. The protein also gave a pKa in data set [8] of 7.27.
